Consider four molecules from publication PMC8809517, “Cofactor-independent RNA editing by a synthetic S-type PPR protein”.

Common to all, as to test: high-throughput RNA pulldown from lysate on Ni-NTA beads; HRP: 50 mM Tris pH 8, 150 mM NaCl, 1 mM beta-mercaptoethanol, 50 ug/ml BSA, 3 ug/ml yeast RNA, 0.5% heparin; ITC and FP: Tris pH 8, 200 mM KCl, 5% glycerol; MST: 50 mM Tris pH 8, 200 mM NaCl, 1 mM DTT, BSA, heparin, 0.05% Tween 20
What all share (settings): tags: N-terminal His-eGFP

In series [1] the target is T1, GFP-9S library array, motif 4 ND N98C;D124P (synthetic construct, N98C;D124P).
T1 chain: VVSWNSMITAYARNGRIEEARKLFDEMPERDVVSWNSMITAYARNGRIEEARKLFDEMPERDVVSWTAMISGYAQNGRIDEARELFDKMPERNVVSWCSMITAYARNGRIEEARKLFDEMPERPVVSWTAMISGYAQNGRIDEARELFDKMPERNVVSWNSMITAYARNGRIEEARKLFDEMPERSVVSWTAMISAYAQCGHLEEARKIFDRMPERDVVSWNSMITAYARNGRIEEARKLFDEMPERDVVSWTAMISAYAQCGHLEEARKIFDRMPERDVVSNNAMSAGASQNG

Series [2] concerns the target T2, GFP-9S library array, motif 4 ND N98G;D124M (synthetic construct, N98G;D124M).
T2 chain: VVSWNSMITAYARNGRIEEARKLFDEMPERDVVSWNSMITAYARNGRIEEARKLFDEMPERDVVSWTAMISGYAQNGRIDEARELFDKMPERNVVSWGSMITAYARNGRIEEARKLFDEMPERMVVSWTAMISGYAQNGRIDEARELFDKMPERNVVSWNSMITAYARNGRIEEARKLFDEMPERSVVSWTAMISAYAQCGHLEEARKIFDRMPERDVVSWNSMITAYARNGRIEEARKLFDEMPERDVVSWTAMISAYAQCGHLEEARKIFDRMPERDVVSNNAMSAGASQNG

For series [3], the target named is T3, GFP-9S library array, motif 4 ND N98Q;D124Q (synthetic construct, N98Q;D124Q).
T3 chain: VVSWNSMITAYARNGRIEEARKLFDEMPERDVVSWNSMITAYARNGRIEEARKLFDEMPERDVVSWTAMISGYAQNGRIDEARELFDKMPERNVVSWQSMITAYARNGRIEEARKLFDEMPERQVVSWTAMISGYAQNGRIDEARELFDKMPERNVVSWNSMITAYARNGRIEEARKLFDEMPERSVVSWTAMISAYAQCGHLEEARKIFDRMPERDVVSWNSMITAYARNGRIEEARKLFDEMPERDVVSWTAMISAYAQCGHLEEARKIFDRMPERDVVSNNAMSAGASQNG

The target in series [4] is T4, GFP-9S library array, motif 4 ND N98H;D124G (synthetic construct, N98H;D124G).
T4 chain: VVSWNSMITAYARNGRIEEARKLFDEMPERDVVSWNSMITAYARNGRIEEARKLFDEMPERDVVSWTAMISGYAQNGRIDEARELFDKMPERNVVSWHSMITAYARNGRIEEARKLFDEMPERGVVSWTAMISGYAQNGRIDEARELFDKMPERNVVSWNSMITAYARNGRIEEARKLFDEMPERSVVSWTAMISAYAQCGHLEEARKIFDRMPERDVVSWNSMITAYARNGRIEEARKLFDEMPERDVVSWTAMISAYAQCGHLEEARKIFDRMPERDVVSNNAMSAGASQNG

The target in series [5] is T5, GFP-9S library array, motif 4 ND N98P;D124E (synthetic construct, N98P;D124E).
T5 chain: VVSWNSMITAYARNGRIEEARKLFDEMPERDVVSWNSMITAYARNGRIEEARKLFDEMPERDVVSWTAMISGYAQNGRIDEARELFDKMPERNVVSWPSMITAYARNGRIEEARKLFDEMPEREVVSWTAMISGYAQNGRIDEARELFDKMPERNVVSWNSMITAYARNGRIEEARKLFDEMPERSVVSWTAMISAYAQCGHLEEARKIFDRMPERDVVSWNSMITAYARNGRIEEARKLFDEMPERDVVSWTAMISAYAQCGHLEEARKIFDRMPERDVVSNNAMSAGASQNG

B1: Cy5-rpoA (ssRNA)
RNA: AUUACACGUGA
In general, Kd refers to the concentration at which binding is half-saturated. Higher therefore signals weaker binding. For B1, the Kd in series [1] (label: 5' Cy5) was found to be 272 nM; in series [2] (label: 5' Cy5), 57.8 nM; in series [3] (label: 5' Cy5) it was 118 nM; in series [4] (label: 5' Cy5) it was 101 nM; in series [5] (label: 5' Cy5), 204 nM.

B2: IR-rpoA-A (ssRNA)
RNA: AUUAAACGUGA
As to B2, the Kd in series [1] (label: 5' IRDye 800CW) was found to be 263 nM; in series [2] (label: 5' IRDye 800CW), 94.3 nM; in series [3] (label: 5' IRDye 800CW) it was 167 nM; in series [4] (label: 5' IRDye 800CW), 61.3 nM; in series [5] (label: 5' IRDye 800CW), 386 nM.

B3: Cy5-rpoA-G (ssRNA)
RNA: AUUAGACGUGA
B3: the Kd in series [1] (label: 5' Cy5) came to 321 nM; in series [2] (label: 5' Cy5), 66 nM; in series [3] (label: 5' Cy5), 95.5 nM; in series [4] (label: 5' Cy5), 37.1 nM; in series [5] (label: 5' Cy5), 220 nM.

B4: IR-rpoA-U (ssRNA)
RNA: AUUAUACGUGA
For B4, the Kd in series [1] (label: 5' IRDye 800CW) came out at 351 nM; in series [2] (label: 5' IRDye 800CW) it was 149 nM; in series [3] (label: 5' IRDye 800CW) it was 123 nM; in series [4] (label: 5' IRDye 800CW), 38.7 nM; in series [5] (label: 5' IRDye 800CW), 309 nM.
